This is an account of results in US20220064316A1 (published 2022).

B2: BCMA-Fc antigen (R&D Systems) (Fc fusion)
chain: MLQMAGQCSQNEYFDSLLHACIPCQLRCSSNTPPLTCQRYCNASVTNSVKGTNA
notes: also called BCMA fc fusion protein (R&D Systems, cat #193-BC-050); recombinant BCMA-Fc; not shown: Fc portion of the bought fusion protein

The target in test [1] is B2. Description: flow cytometry; BCMA-Fc staining of CAR-transduced JNL cells. Here is the method: Jurkat-NFAT-luciferase (JNL) cells transduced with BCMA CAR constructs were evaluated for activation in response to BCMA-expressing target cell lines. Small-scale viral supernatant samples were generated in HEK293T cells for transduction of JNL cells. On Day 3 following transduction, BCMA CAR-transduced JNL cells were incubated with target cells at an effector-to-target (E:T) ratio of 6:1. Target cell lines were: K562-BCMA (engineered to stably express BCMA), K562 (parental line), and BCMA positive multiple myeloma cell lines, NCI-H929 and RPMI 8226. JNL activation was measured using Bright-Glo substrate (Promega) on Day 4. CAR expression on transduced JNL was assessed on Day 7 with BCMA-Fc antigen and Biotin-Protein L reagent (Table 21).

Test [2] addresses T1, human BCMA (B-cell maturation antigen) on cells (human, UniProt Q02223 1-184).
T1 sequence (looked up): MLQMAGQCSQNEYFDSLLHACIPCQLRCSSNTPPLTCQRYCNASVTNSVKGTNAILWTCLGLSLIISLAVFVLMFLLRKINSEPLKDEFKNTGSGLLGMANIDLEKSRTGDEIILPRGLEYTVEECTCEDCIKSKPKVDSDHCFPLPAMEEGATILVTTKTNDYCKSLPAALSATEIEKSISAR
The experiment in a line: cell-based or functional assay.

The target in the next test is T2, BCMA-10 CAR (139109).
T2 construct: also called B10; EG63-98LB
Description: flow cytometry; BCMA-Fc antigen staining of CAR-transduced SupT1 cells.

For test [3], the target named is T3, BCMA (recombinant, form not given) (UniProt Q02223 1-54, limits assumed).
T3 construct: one entry is used for both; also called Bio-BCMA; BCMA substrate
T3 sequence (looked up): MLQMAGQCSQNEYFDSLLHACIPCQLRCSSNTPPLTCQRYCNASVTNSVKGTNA
The experiment in a line: affinity assay (RU biosensor), 1:1 Binding fit.

B1: BCMA-1 CAR (139100) (other)
chain: QVQLVQSGAEVRKTGASVKVSCKASGYIFDNFGINWVRQAPGQGLEWMGWINPKNNNTNYAQKFQGRVTITADESTNTAYMEVSSLRSEDTAVYYCARGPYYYQSYMDVWGQGTMVTVSSASGGGGSGGRASGGGGSDIVMTQTPLSLPVTPGEPASISCRSSQSLLHSNGYNYLNWYLQKPGQSPQLLIYLGSKRASGVPDRFSGSGSGTDFTLHITRVGAEDVGVYYCMQALQTPYTFGQGTKLEIKTTTPAPRPPTPAPTIASQPLSLRPEACRPAAGGAVHTRGLDFACDIYIWAPLAGTCGVLLLSLVITLYCKRGRKKLLYIFKQPFMRPVQTTQEEDGCSCRFPEEEEGGCELRVKFSRSADAPAYKQGQNQLYNELNLGRREEYDVLDKRRGRDPEMGGKPRRKNPQEGLYNELQKDKMAEAYSEIGMKGERRRGKGHDGLYQGLSTATKDTYDALHMQALPPR
notes: also called ER95-03VA
On to B1, for which, in test [1], the “% CAR+ (BCMA-Fc detection)” value was determined as 72.1%. In test [2], the “JNL binding assay, ratio to K562; K562-BCMA” value turned out to be 4.6 ratio; the “JNL binding assay, ratio to K562; NCI-H929” value was determined as 4.55 ratio; the “JNL binding assay, ratio to K562; RPMI 8226” value came out at 5.06 ratio; the “Proliferation CD3, ratio to no target; K562-BCMA” value stood at 1.59 ratio. Moreover, in test [2], the “Proliferation CD3, ratio to no target; KMS11-luc” value is 1.38 ratio; the “Proliferation CD3, ratio to no target; NCI-H929” value was found to be 4.97 ratio; the “Proliferation CD3, ratio to no target; RPMI 8226” value stood at 2.96 ratio; the “Proliferation CD4, ratio to no target; K562-BCMA” value was determined as 1.57 ratio. Moreover, in test [2], the “Proliferation CD4, ratio to no target; KMS11-luc” value was determined as 1.24 ratio; the “Proliferation CD4, ratio to no target; NCI-H929” value was 5.57 ratio; the “Proliferation CD4, ratio to no target; RPMI 8226” value is 2.43 ratio; the “Proliferation CD8, ratio to no target; K562-BCMA” value stood at 1.61 ratio. Moreover, in test [2], the “Proliferation CD8, ratio to no target; KMS11-luc” value came to 1.56 ratio; the “Proliferation CD8, ratio to no target; NCI-H929” value was 4.14 ratio; the “Proliferation CD8, ratio to no target; RPMI 8226” value came out at 3.58 ratio.

For B2, the binding result in the test with BCMA-10 CAR (139109) is “binds”.

B3: BCMA-15 scFv (139114) (scFv)
scFv: EVQLVESGGGLVQPGGSLRLSCAVSGFALSNHGMSWVRRAPGKGLEWVSGIVYSGSTYYAASVKGRFTISRDNSRNTLYLQMNSLRPEDTAIYYCSAHGGESDVWGQGTTVTVSSASGGGGSGGRASGGGGSEIVLTQSPGTLSLSPGERATLSCRASQSIGSSSLAWYQQKPGQAPRLLMYGASSRASGIPDRFSGSGSGTDFTLTISRLEPEDFAVYYCQQYAGSPPFTFGQGTKVEIK
notes: also called B15; BMCA-15
Regarding B3, in test [3], the Kd was 9.3 nM, the koff is 0.00187 s⁻¹ and the kon came out at 201000 M⁻¹ s⁻¹.

B4: BCMA-13 scFv (139112) (scFv)
scFv: QVQLVESGGGLVQPGGSLRLSCAVSGFALSNHGMSWVRRAPGKGLEWVSGIVYSGSTYYAASVKGRFTISRDNSRNTLYLQMNSLRPEDTAIYYCSAHGGESDVWGQGTTVTVSSASGGGGSGGRASGGGGSDIRLTQSPSPLSASVGDRVTITCQASEDINKFLNWYHQTPGKAPKLLIYDASTLQTGVPSRFSGSGSGTDFTLTINSLQPEDIGTYYCQQYESLPLTFGGGTKVEIK
notes: also called B13
In the case of B4, in test [3], the Kd was 24.5 nM, the koff was determined as 0.00161 s⁻¹ and the kon stood at 65600 M⁻¹ s⁻¹.

B5: BCMA-4 scFv (139103) (scFv)
scFv: QVQLVESGGGLVQPGRSLRLSCAASGFTFSNYAMSWVRQAPGKGLGWVSGISRSGENTYYADSVKGRFTISRDNSKNTLYLQMNSLRDEDTAVYYCARSPAHYYGGMDVWGQGTTVTVSSASGGGGSGGRASGGGGSDIVLTQSPGTLSLSPGERATLSCRASQSISSSFLAWYQQKPGQAPRLLIYGASRRATGIPDRFSGSGSGTDFTLTISRLEPEDSAVYYCQQYHSSPSWTFGQGTKLEIK
notes: also called B4
In the case of B5, in test [3], the Kd is 1 nM, the koff was 0.0006 s⁻¹ and the kon worked out at 617000 M⁻¹ s⁻¹.

B6: BCMA-15 CAR (139114) (other)
chain: EVQLVESGGGLVQPGGSLRLSCAVSGFALSNHGMSWVRRAPGKGLEWVSGIVYSGSTYYAASVKGRFTISRDNSRNTLYLQMNSLRPEDTAIYYCSAHGGESDVWGQGTTVTVSSASGGGGSGGRASGGGGSEIVLTQSPGTLSLSPGERATLSCRASQSIGSSSLAWYQQKPGQAPRLLMYGASSRASGIPDRFSGSGSGTDFTLTISRLEPEDFAVYYCQQYAGSPPFTFGQGTKVEIKTTTPAPRPPTPAPTIASQPLSLRPEACRPAAGGAVHTRGLDFACDIYIWAPLAGTCGVLLLSLVITLYCKRGRKKLLYIFKQPFMRPVQTTQEEDGCSCRFPEEEEGGCELRVKFSRSADAPAYKQGQNQLYNELNLGRREEYDVLDKRRGRDPEMGGKPRRKNPQEGLYNELQKDKMAEAYSEIGMKGERRRGKGHDGLYQGLSTATKDTYDALHMQALPPR
notes: also called B15; PY43-48LB
On to B6, for which, in test [1], the “% CAR+ (BCMA-Fc detection)” value came to 36.9%. In test [2], the “JNL binding assay, ratio to K562; K562-BCMA” value worked out at 2.91 ratio; the “JNL binding assay, ratio to K562; NCI-H929” value was 2.79 ratio; the “JNL binding assay, ratio to K562; RPMI 8226” value was 3.49 ratio; the “Proliferation CD3, ratio to no target; K562-BCMA” value was determined as 3.94 ratio. In test [2], the “Proliferation CD3, ratio to no target; KMS11-luc” value worked out at 3.51 ratio; the “Proliferation CD3, ratio to no target; NCI-H929” value worked out at 4.08 ratio; the “Proliferation CD3, ratio to no target; RPMI 8226” value came out at 3.73 ratio; the “Proliferation CD4, ratio to no target; K562-BCMA” value was 4.87 ratio. For the same molecule, in test [2], the “Proliferation CD4, ratio to no target; KMS11-luc” value worked out at 3.82 ratio; the “Proliferation CD4, ratio to no target; NCI-H929” value came to 4.82 ratio; the “Proliferation CD4, ratio to no target; RPMI 8226” value worked out at 4.24 ratio; the “Proliferation CD8, ratio to no target; K562-BCMA” value was found to be 1.89 ratio. In test [2], the “Proliferation CD8, ratio to no target; KMS11-luc” value turned out to be 2.73 ratio; the “Proliferation CD8, ratio to no target; NCI-H929” value came out at 2.42 ratio; the “Proliferation CD8, ratio to no target; RPMI 8226” value was determined as 2.51 ratio.
